Residue numbers refer to the chain shown, from its start. In names and notes the source's numbering stands. Marks after values point to notes of the source that are not given here.
B1: mutant III (Oenococcus oeni PSU-1; F133K) (protein)
chain: MNKLFLPKNFLWGGAVAANQLEGGWDQDNKGLSVADIMTAGANGKAREITDGIVKGKYYPNHEAIDFYHRYKEDIKLFAEMGFKCFRTSIAWTRIFPNGDEEQPNEAGLKFYDQLFDECHKYGIEPVITLSHKEMPYHLVKAYGGWRNRKLIDFFVRFAKTVFKRYKDKVSYWMTFNEIDNQTDYTNRFLMATNSGLILKNDQSDAESLMYQAAHYELVASALAVKLGHSINPNFQIGCMINMTPVYPASSKPADIFQAEKAMQRRYWFSDIHALGKYPENMEVFLKQNNFRPDITSEDRIVLKEGTVDYIGLSYYNSMTVQSKESNPGFHFIGPELTVDNPNVEKSDWGWPIDPLGLRYSLNWLADHYHKPLFIVENGLGAYDKVENSQQIHDPYRIAYLKAHIQAMIDAVQEDGVKVIGYTPWGCIDLVSAGTGQMSKRYGFIYVDKDDQGKGSLKRLKKDSFFWYQQVIQSNGSQLD
notes: purified recombinant, pMG36e plasmid, expressed in Lactococcus lactis MG1363
B2: mutant IV (Oenococcus oeni PSU-1; N181R) (protein)
chain: B1 chain with K133F, N181R
notes: as for B1
B3: wild-type enzyme (Oenococcus oeni PSU-1) (protein)
chain: B1 chain with K133F
notes: purified recombinant BGL0224 (MT330371.1), plasmid pMG36e-0224, expressed in Lactococcus lactis MG1363

These proteins were tested on O=[N+]([O-])c1ccc(O[C@@H]2OC[C@@H](O)[C@H](O)[C@H]2O)cc1 (assay: p-Nitrophenol release read at 420 nm after Na2CO3 stop, 0.1-25 mM substrate in 20 mM sodium phosphate buffer at each enzyme's optimum (wild type pH 5.0, 50 °C; mutant III pH 3.5, 50 °C; mutant IV pH 4.0, 45 °C), Hill function fit in Origin.).
Assay type: biochemical
Description: (§1) 3.9. Enzymatic Reaction Kinetics and Substrate Specificity
(§2) The determination of enzymatic reaction kinetics was conducted according to Zhang et al., with slight modifications. Different concentrations (0.1 mM, 0.2 mM, 0.5 mM, 1.0 mM, 2.0 mM, 5.0 mM, 8.0 mM, 10 mM, 12 mM, 15 mM, 20 mM and 25 mM) of p-NPG substrate solutions were prepared with 20 mM sodium phosphate buffer. Then, 100 μg of enzyme lyophilized powder were added to 500 μL of p-NPG solutions at different concentrations. Next, this was reacted for 0 min, 5 min, 10 min, 15 min, 20 min, 25 min and 30 min under optimal reaction conditions, and at the end of each set of reactions, 500 μL 1 M of Na2CO3 solution were added to terminate the reaction. The absorbance value of each reaction system was measured at 420 nm and the amount of p-NP corresponding to different reaction times at specific substrate concentrations was calculated from the standard curve. The kinetic constants (Vmax and Km) of each reaction system were determined by fitting using the Hill function in the class of Growth/Inverse Curve for nonlinear fitting in the Origin Pro 8.0 software.
(§3) All experiments were set up in three parallels. The activities of the wild-type enzyme and five mutants were analyzed by ANOVA at the significance level of p < 0.05 using the SPSS 26.0 software, and multiple comparisons of the means were performed using Duncan’s method. The kinetic parameters of the enzymatic reactions for the wild-type enzyme and mutants catalyzing four substrates were subjected to independent sample t-tests at a significance level of p < 0.05, and the data were expressed as mean ± standard deviation. The experimental results were plotted using the Origin 2021 software.

Q: With B1 as the protein, how does the Km read?
A: 1.24 ± 0.13 ^b mM

Q: What about the Vmax of the same protein?
A: 337 ± 4.61 µM/min/mg

Q: And the kcat?
A: 310 ± 4.24 s⁻¹

Q: What about the kcat/Km of the same protein?
A: 250000 M⁻¹ s⁻¹

Q: How did the Km turn out when B2 was run?
A: 1.17 ± 0.16 ^a mM

Q: And the Vmax?
A: 359 ± 3.88 µM/min/mg

Q: What about the kcat of the same protein?
A: 330 ± 3.57 s⁻¹

Q: What about the kcat/Km of the same protein?
A: 282000 M⁻¹ s⁻¹

Q: How did the Km turn out when B3 was run?
A: 1.31 ± 0.22 ^c mM

Q: What about the Vmax of the same protein?
A: 308 ± 3.64 µM/min/mg

Q: What about the kcat of the same protein?
A: 283 ± 3.34 s⁻¹

Q: What about the kcat/Km of the same protein?
A: 216000 M⁻¹ s⁻¹

These proteins were tested on O=[N+]([O-])c1ccc(O[C@@H]2O[C@H](CO)[C@@H](O)[C@H](O)[C@H]2O)cc1 in the same assay as above.
Assay type: biochemical
Description: as §1, §2, §3

Q: Which results are given for B1?
A: Km: 0.27 ± 0.05 ^b mM; Vmax: 533 ± 6.51 µM/min/mg; kcat: 490 ± 5.98 s⁻¹; kcat/Km: 1.81e+06 M⁻¹ s⁻¹

Q: Which results are given for B2?
A: Km: 0.22 ± 0.03^a mM; Vmax: 841.6 ± 3.82 µM/min/mg; kcat: 773.6 ± 3.52 s⁻¹; kcat/Km: 3.52e+06 M⁻¹ s⁻¹

Q: Which results are given for B3?
A: Km: 0.33 ± 0.03 ^c mM; Vmax: 363 ± 4.13 µM/min/mg; kcat: 334 ± 3.8 s⁻¹; kcat/Km: 1.01e+06 M⁻¹ s⁻¹

The proteins below were run on O=[N+]([O-])c1ccc(O[C@@H]2O[C@H](CO)[C@H](O)[C@H](O)[C@H]2O)cc1 in the same assay as above.
Assay type: biochemical
Description: as §1, §2, §3

Q: With B1 as the protein, how does the Km read?
A: 0.52 ± 0.17 ^a mM

Q: And the Vmax?
A: 349 ± 4.83 µM/min/mg

Q: And the kcat?
A: 321 ± 4.44 s⁻¹

Q: What about the kcat/Km of the same protein?
A: 617000 M⁻¹ s⁻¹

Q: What does the source list for B2?
A: Km: 0.87 ± 0.24 ^c mM; Vmax: 257 ± 5.47 µM/min/mg; kcat: 237 ± 5.03 s⁻¹; kcat/Km: 272000 M⁻¹ s⁻¹

Q: How did the Km turn out when B3 was run?
A: 0.81 ± 0.16 ^b mM

Q: And the Vmax?
A: 231 ± 5.71 µM/min/mg

Q: And the kcat?
A: 212 ± 5.25 s⁻¹

Q: And the kcat/Km?
A: 262000 M⁻¹ s⁻¹

What follows are proteins tested on O=[N+]([O-])c1ccc(O[C@H]2O[C@H](CO)[C@@H](O)[C@H](O)[C@H]2O)cc1 in the same assay as above.
Assay type: biochemical
Description: as §1, §2, §3

Q: What does the source list for B1?
A: Km: 1.19 ± 0.23 ^b mM; Vmax: 25.8 ± 2.06 µM/min/mg; kcat: 23.7 ± 1.89 s⁻¹; kcat/Km: 19900 M⁻¹ s⁻¹

Q: Which results are given for B2?
A: Km: 1.27 ± 0.19 ^c mM; Vmax: 19.9 ± 1.98 µM/min/mg; kcat: 18.4 ± 1.82 s⁻¹; kcat/Km: 14400 M⁻¹ s⁻¹

Q: What does the source list for B3?
A: Km: 1.07 ± 0.20 ^a mM; Vmax: 29.6 ± 1.83 µM/min/mg; kcat: 27.2 ± 1.68 s⁻¹; kcat/Km: 25400 M⁻¹ s⁻¹
